Experimental data published in patent US20020032166A1, “Biocompatible cationic detergents and uses therefor” (University Technology Corporation, priority 1992, published 2002).
Several values for one entry are separate records, joined by “and”; a condition that tells them apart may be missing. Equal entries are not always repeated. Where two headings read alike, the source gives them in different places. Blank lines part the entries; values can stand above or below the molecule they belong to.

Columns and labels:
[1] = Thermal denaturation / melting point followed at 222 nm (CD, absorbance); type: physicochemical
Method: Both circular dichroism (CD) signal and light scattering (as measured by changes in absorbance) were measured at 222 nm and the melting point determined by an inflection point in the measured scan.

[2] = Apparent water/1-octanol partition coefficient of SDS hydrophobic ion pair complexes
From the text: The relative solubilities in two phases is given in terms of an apparent partition coefficient. The apparent partition coefficient is defined as the ratio of the equilibrium concentration in an organic phase to that in an aqueous phase. The actual value of the apparent partition coefficient, P, is dependent on the two solvent systems employed. In all cases herein described, the organic phase is 1-octanol and the aqueous phase is water alone or with a minimal amount of HCl added.
(§3) Apparent partition coefficients were measured by dissolving a peptide in 1.25 ml of an aqueous solution. Before SDS addition, the pH was measured on a Beckman pH meter. Upon addition of an SDS solution, the solutions turned cloudy and a precipitate formed immediately. An equal volume of 1-octanol was added and the mixtures agitated, and then left undisturbed for several hours. Prior to analysis, the tubes were spun for 10 minutes at 4000 g. Each layer was removed and the absorbance measured on a Beckman DU-64 UV-visible spectrophotometer using 1 cm quartz cells. All apparent partition coefficients were corrected for changes in pH with differing SDS concentrations.
Results are described as logarithms of the apparent partition coefficient. A log P value of 0 means that the compound is equally soluble in water and the organic phase.

[3] = Partitioning of anionic compounds with arginine esters; type: physicochemical
Method: Stock solutions of the arginine esters were made by first dissolving the powder in 0.1 N HCl to give a 10 mM solution and then raising the pH to a value between 5 and 6. The pH should not be raised above 8.
Anionic compounds were dissolved in pH 5.5 buffer (10 mM bis-tris propane, 10 mM CaCl2, 10 mM KCl). Appropriate amounts of the stock solution of arginine ester (see above), the anionic compound and buffer were mixed so that the final concentration of the anionic material was 1 mg/mL. An equal volume of organic solvent was added, and the samples were vortexed for 15 seconds on high speed. Layers were separated by centrifugation at 4000 rpm for 5 minutes. Concentrations of the anionic material in the aqueous and organic layers were determined by UV spectroscopy on a Beckman DU-64 series spectrophotometer.

[4] = tested on: CCRF-CEM cells; assay: Cytotoxicity, MTS cell proliferation assay; type: cell-based, human; details: for IC50: Homo sapiens, 2-6 h exposure, 72 h growth, read-out: IC50 (half-maximal growth inhibition)
From the text: (§1) The cytotoxicity of arginine dodecyl ester was investigated in cell culture with two types of cells (see Cory et al., Cancer Commun., 3, 207-212 (1991)): CCRF-CEM cells, a human T-cell leukemia cell line that grows in suspension (obtained from the American Type Culture Collection, ATCC); and a green monkey kidney cell line (COS-7) that grows in monolayers (also obtained from ATCC). For comparison, the cells were also exposed to […] bromide (DTAB) (Sigma).
(§2) Cells were plated into 96-well plates (Corning) in a total of 200 μL Dulbecco's modified minimal essential medium for COS-7 cells, RPMI 1640 for CEM cells, supplemented with penicillin G (50 U/ml), streptomycin sulfate (50 μg/ml), and 10% fetal calf serum, at 10,000 cells/well for COS-7 amd 50,000 cells/well for CEM cells. The plates were incubated at 37° C. for 24 hours after plating. The cells were then exposed to various concentrations of the detergents. Each detergent concentration was used in 8 replicate wells. After 2-6 hours, media/detergent solutions were aspirated, and the wells were washed twice with PBS. For CEM suspension cells, centrifugation of the suspension at 1000×g for 5 min between each wash was required. After washing, 200 μL of fresh medium were added, and the cells were incubated for 72 hours. After 72 hours, cell proliferation was determined using the Promega CellTiter 96 AQueous Non-Radioactive Cell Proliferation Assay.

[5] = tested on: COS-7 cells; assay: Cytotoxicity, MTS cell proliferation assay; type: cell-based, green monkey; details: for IC50: Chlorocebus sabaeus, 2-6 h exposure, 72 h growth, read-out: IC50 (half-maximal growth inhibition)
From the text: as §1, §2
CC-CHOL was tested for cytotoxicity as described in Example 38 using COS-7 and JEG-3 cells. JEG-3 cells are a human choriocarcinoma cell line available from ATCC. The culture medium was Eagle's minimum essential medium containing 10% serum.

[6] = Surface tension, critical micelle concentration; type: physicochemical; details: in 0.1 N HCl
Method: Surface tension was measured using a Fisher surface tensiometer. Briefly, a platinum iridium ring with a diameter of 6 cm was lowered into the appropriate dilution of detergent in 0.1 N HCl. Surface tension was read at the point where the force on the ring upwards caused the ring to break contact with the liquid surface.

[7] = tested on: COS-7 cells; assay: Transfection of pRSV400luc plasmid, luciferase activity; type: cell-based, green monkey; details: no liposomes or helper lipids
From the text: The plasmid used was pRSV400luc. It was obtained from Dr. David Gordon, Div. Endocrinology, University of Colorado School of Medicine, Denver, Colo. It was propagated in Escherichia coli strain DH5a (ATCC), isolated by a standard alkaline-SDS lysis procedure, and purified twice by isopycnic centrifugation on CsCl gradients (Sambrook et al., Molecular Cloning: A Laboratory Manual (Cold Spring Harbor Laboratory) (1989). COS-7 cells at approximately 50,000 cells per 60 mm diameter plate (Falcon) were used for transfection. Control experiments were done with Lipofectamine (GIBCO/Life Technologies, Gaithersburg, Md.).
In 200 total μL of serum-free medium, plasmid (20 μg) and Lipofectamine or arginine dodecyl ester were mixed and allowed to interact for 45 minutes. The volume was then brought to 1 mL with serum-free medium. Plates with cells were washed with serum-free medium. […]
After allowing cells to grow and express gene product for 36-50 hours, the cells were harvested. […] Intensity of luminescence should be proportional to the amount of expressed luciferase and, therefore, the efficiency of transfection. “Background” is the reading from just the substrate mixture on the luminometer before addition of cell lysate. […] Any reading over 100 units is considered significant.

[8] = SDS-insulin complex
Method: as §3

[9] = aqueous solution; cited from earlier work
[10] = Apparent solubility of HIP complexes in organic solvents
[11] = Solubility of arginine octyl ester powder; type: physicochemical

Molecule: hGH: human growth hormone; precipitate with SDS at pH 2
solubility in 1-octanol (pH 2): not found to be soluble
aqueous solubility on addition of SDS (pH 7.8): not affected

Molecule: insulin-SDS complex: hydrophobic ion pair complex of insulin with sodium dodecyl sulfate
structure after prolonged heating ([1]; 1-octanol, 70° C. for more than 1 hour): appears to maintain its native structure
melting point in 1-octanol ([1]; SDS:insulin molar ratio 6:1, 200 ug/ml): about 116 °C
melting point in 1-octanol, CD scan at 222 nm ([1]; SDS:insulin molar ratio 9:1 (FIG. 10)): 106 °C
melting point in 1-octanol, absorbance scan at 222 nm ([1]; SDS:insulin molar ratio 9:1 (FIG. 11)): 106 °C

partitioning into 1-octanol with SDS ([2]; pH 7 / neutral pH): readily partitions into 1-octanol
Molecule: Gly-Phe-NH2

Molecule: Cc1ccc(S(=O)(=O)[O-])cc1.[Na+] [p-toluenesulfonic acid, sodium salt]
log p ([3]; ester C8 (arginine octyl ester), solvent octanol, pH 5.5 buffer): -0.353
log p ([3]; ester C8, solvent isooctane, pH 5.5 buffer): -2.2
log p ([3]; ester C12 (arginine dodecyl ester), solvent octanol, pH 5.5 buffer): -0.336
log p ([3]; ester none, solvent isooctane, pH 5.5 buffer): -2.7
log p ([3]; ester none, solvent octanol, pH 5.5 buffer): -1.62

Molecule: Gly-Phe
partitioning into 1-octanol with SDS ([2]; pH 3): mirrors the marked increase seen for Gly-Phe-NH2
partitioning into 1-octanol with SDS ([2]; pH 7 / neutral pH): little enhancement of the partition coefficient

Molecule: CCCCCCCCCCCCCC[N+](C)(C)C [DTAB, tetradecyltrimethylammonium bromide, reference compound]
IC50 [4]: 20 µM
IC50 [5]: 80 µM

critical micelle concentration (cmc) [6]: approximately 0.3 mM and ~0.10 mg/ml
Molecule: CCCCCCCCCCCCOC(=O)[C@@H](N)CCCNC(=N)N [arginine dodecyl ester]
toxicity relative to DTAB [4]: seven-fold less toxicity
IC50 [4]: 150 µM
toxicity relative to DTAB [5]: approximately two-fold less toxicity
IC50 [5]: 175 µM
transfection of plasmid [7]: promoted transection of the plasmid in a concentration and time dependent manner

log p ([3]; octanol/pH 5.5 buffer, pH 5.5, ester C12, detergent:anionic compound 1:1, solvent octanol, read-out: log p): -1.48
log p ([3]; octanol/pH 5.5 buffer, pH 5.5, ester C12, detergent:anionic compound 3:1, solvent octanol, read-out: log p): 0.022
log p ([3]; octanol/pH 5.5 buffer, pH 5.5, ester none, solvent octanol, pH 5.5 buffer, read-out: log p): -3.23
Molecule: Nc1ncnc2c1ncn2[C@@H]1O[C@H](COP(=O)(O)OP(=O)(O)OP(=O)(O)O)[C@@H](O)[C@H]1O [adenosine triphosphate]

Molecule: insulin: insulin, a hydrophilic protein; in Table 1 and in 1-octanol present as SDS complex
Tm in 1-octanol above that observed in water ([1]; 1-octanol vs water): more than 30 degrees
Log P ([8]; organic solvent 1-Chlorooctane): not detectable
Log P ([8]; organic solvent 1-octanol): ≧ 1.2
Log P ([8]; organic solvent CCl4): not detectable
Log P ([8]; organic solvent CH2Cl2): not detectable
Log P ([8]; organic solvent Dimethoxyethane): not detectable
Log P ([8]; organic solvent Ether): not detectable
Log P ([8]; organic solvent Hexane): not detectable
Log P ([8]; organic solvent Mineral Oil): not detectable
Tm of thermal denaturation [9]: about 65 °C
Apparent Sol. ([10]; SDS-insulin complex in 1-Chlorooctane): insoluble
Apparent Sol. ([10]; SDS-insulin complex in 1-octanol): ≧ 1.0 mg/ml
Apparent Sol. ([10]; SDS-insulin complex in CCl4): insoluble
Apparent Sol. ([10]; SDS-insulin complex in CH2Cl2): insoluble
Apparent Sol. ([10]; SDS-insulin complex in DMF): ≧ 1.0 mg/ml
Apparent Sol. ([10]; SDS-insulin complex in Ethanol): ≧ 1.0 mg/ml
Apparent Sol. ([10]; SDS-insulin complex in Ether): insoluble
Apparent Sol. ([10]; SDS-insulin complex in Ethyl acetate): insoluble
Apparent Sol. ([10]; SDS-insulin complex in Hexane): insoluble
Apparent Sol. ([10]; SDS-insulin complex in Methanol): ≧ 1.0 mg/ml
Apparent Sol. ([10]; SDS-insulin complex in Mineral Oil): insoluble
Apparent Sol. ([10]; SDS-insulin complex in NMP): ≧ 1.0 mg/ml
Apparent Sol. ([10]; SDS-insulin complex in PEG 400): ≧ 0.2 mg/ml
Apparent Sol. ([10]; SDS-insulin complex in Propylene Glycol): ≧ 0.5 mg/ml
Apparent Sol. ([10]; SDS-insulin complex in TMP): ≧ 0.2 mg/ml
Apparent Sol. ([10]; SDS-insulin complex in Trifluoroethanol): ≧ 0.5 mg/ml
Apparent Sol. ([10]; SDS-insulin complex in Trimethyl phosphate): ≧ 0.15 mg/ml
Apparent Sol. ([10]; SDS-insulin complex in i-Propanol): ≧ 1.0 mg/ml

critical micelle concentration (cmc) [6]: about 6 mM and ~2.2 mg/ml
solubility in organics ([11]; alcohols, hydrocarbons, aromatics, DMF, pyridine): insoluble
solubility in water ([11]; water): insoluble
Molecule: CCCCCCCCOC(=O)[C@@H](N)CCCNC(=N)N [arginine octyl ester]
solubility in HCl ([11]; HCl): would only dissolve in 0.1 N or stronger HCl

Molecule: bovine serum albumin: bovine serum albumin, anionic test protein
partitioning into octanol layer ([3]; arginine dodecyl ester added, octanol): none would partition into octanol layer

Molecule: NC(=O)CC[C@@H]1NC(=O)[C@H](Cc2ccccc2)NC(=O)[C@H](Cc2ccc(O)cc2)NC(=O)[C@@H](N)CSSC[C@@H](C(=O)N2CCC[C@H]2C(=O)N[C@@H](CCCN=C(N)N)C(=O)NCC(N)=O)NC(=O)[C@H](CC(N)=O)NC1=O [AVP, 8-Arg-vasopressin]
increase of apparent partition coefficient on SDS addition ([2]; 1-octanol/water, stoichiometric SDS): nearly four orders of magnitude
